This is an account of results in paper PMC4748816 (RNA, 2016).

Where a chain is given by its changes, count along the chain named. Names and notes keep the numbering of the source.

The target in series [1] is GST-Loqs-3 (minimal linker plus dsRBD3) (Drosophila) (UniProt Q9VJY9). Kind of series: pull-down.
The target in series [2] is His-tagged GFP-dmDcr1 (Drosophila) (UniProt Q9VCU9). Kind of series: fluorescence cross-correlation spectroscopy.
The target of series [3] is Alexa Fluor 647-labeled Loqs-3 (Loqs-3^AF647), single-labeled dimer fraction (Drosophila) (UniProt Q9VJY9). The experiment in a line: SEC.
A further series has as its target His-tagged GFP-dmDcr1 (Drosophila, UniProt Q9VCU9 1-2249). The experiment in a line: fluorescence cross-correlation spectroscopy.
The series “SEC” deals with the molecule itself. Kind of series: SEC. In general terms: In gel filtration, larger molecules generally elute earlier.

His-tagged GFP-dmDcr1, sequence (Q9VCU9 whole entry): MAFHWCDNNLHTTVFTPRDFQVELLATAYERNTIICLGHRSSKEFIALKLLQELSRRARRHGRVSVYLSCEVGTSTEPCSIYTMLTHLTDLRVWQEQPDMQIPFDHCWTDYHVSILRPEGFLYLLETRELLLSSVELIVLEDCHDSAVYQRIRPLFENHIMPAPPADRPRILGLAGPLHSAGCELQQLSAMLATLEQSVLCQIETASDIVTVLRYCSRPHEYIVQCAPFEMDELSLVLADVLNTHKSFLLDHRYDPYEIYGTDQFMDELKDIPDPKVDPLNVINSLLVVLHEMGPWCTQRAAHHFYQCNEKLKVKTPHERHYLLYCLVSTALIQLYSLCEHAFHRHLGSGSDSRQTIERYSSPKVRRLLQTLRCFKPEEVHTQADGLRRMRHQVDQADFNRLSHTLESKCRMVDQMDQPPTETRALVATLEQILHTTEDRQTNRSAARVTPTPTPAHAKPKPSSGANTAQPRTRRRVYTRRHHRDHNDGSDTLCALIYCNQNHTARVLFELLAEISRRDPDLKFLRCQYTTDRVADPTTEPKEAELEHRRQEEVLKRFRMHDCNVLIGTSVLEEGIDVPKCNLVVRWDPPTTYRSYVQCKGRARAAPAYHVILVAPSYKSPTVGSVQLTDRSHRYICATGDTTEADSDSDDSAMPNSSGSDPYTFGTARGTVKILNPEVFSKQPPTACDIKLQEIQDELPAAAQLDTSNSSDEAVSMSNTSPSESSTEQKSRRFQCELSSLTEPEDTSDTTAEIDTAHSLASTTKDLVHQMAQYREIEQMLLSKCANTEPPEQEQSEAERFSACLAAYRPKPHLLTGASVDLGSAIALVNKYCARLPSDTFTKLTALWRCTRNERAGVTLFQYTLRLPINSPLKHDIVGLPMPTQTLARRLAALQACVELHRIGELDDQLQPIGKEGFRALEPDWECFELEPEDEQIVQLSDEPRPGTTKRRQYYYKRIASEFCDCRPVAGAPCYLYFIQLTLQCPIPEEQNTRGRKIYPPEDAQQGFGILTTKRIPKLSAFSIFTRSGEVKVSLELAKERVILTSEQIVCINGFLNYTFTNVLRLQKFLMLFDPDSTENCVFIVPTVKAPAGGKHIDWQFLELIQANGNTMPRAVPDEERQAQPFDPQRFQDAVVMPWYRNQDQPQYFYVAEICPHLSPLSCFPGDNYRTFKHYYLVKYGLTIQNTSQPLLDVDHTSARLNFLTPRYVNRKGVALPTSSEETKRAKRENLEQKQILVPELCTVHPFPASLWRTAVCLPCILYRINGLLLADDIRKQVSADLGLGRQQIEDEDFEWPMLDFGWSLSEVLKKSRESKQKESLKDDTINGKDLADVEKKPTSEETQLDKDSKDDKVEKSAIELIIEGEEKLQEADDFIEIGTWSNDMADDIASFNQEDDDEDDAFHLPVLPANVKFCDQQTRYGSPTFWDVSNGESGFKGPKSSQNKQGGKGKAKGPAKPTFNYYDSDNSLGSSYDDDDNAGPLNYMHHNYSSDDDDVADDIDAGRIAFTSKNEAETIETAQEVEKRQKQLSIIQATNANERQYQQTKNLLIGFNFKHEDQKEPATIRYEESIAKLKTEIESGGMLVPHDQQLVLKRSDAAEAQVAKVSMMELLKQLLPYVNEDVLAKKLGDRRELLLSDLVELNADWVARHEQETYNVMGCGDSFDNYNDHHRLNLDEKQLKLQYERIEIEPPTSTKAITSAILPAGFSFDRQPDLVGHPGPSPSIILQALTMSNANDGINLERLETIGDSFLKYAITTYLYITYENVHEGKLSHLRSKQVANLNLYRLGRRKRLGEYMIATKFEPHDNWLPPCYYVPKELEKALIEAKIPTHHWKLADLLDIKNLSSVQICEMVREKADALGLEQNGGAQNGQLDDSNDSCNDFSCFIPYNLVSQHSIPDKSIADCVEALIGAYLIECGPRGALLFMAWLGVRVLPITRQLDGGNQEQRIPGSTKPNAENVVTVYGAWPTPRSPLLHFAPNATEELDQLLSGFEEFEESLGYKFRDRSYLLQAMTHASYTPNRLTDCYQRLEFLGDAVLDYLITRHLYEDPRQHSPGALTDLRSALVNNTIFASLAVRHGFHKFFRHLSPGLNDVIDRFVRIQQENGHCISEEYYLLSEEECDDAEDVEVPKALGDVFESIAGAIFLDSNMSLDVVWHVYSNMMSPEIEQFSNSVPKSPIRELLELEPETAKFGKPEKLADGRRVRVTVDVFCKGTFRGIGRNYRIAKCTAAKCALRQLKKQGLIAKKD
His-tagged GFP-dmDcr1 (Drosophila), sequence (Q9VCU9 whole entry): as above

For “His-tagged dmDcr1 (Drosophila Dicer1), Q9VCU9 1-2249”, the fold binding against dsRBD3 alone in series [1] was found to be 10 fold.
Regarding “Alexa Fluor 647-labeled dsRBD3 (dsRDB3^AF647) (from UniProt Q9VJY9 392-463) (domain or fragment)”, the Kd in series [2] is 192 nM.
Turning to “Alexa Fluor 647-labeled Loqs-3 (Loqs-3^AF647), single-labeled dimer fraction (from UniProt Q9VJY9 368-463) (domain or fragment)”, the stoichiometry N in series [3] amounted to 2.

B1: Loqs dsRBD3, unlabeled, purified (domain or fragment, Drosophila)
chain: IDYIKLLGEIATENQFEVTYVDIEEKTFSGQFQCLVQLSTLPVGVCHGSGPTAADAQRHAAQNALEYLKIMT
In the series with His-tagged GFP-dmDcr1, B1 came in with an IC50 of 104 nM and a Ki of 43.6 nM.

B2: Loqs-3, unlabeled, purified (domain or fragment, Drosophila, UniProt Q9VJY9 368-463, looked up)
chain: HKTLKNATGKKLLKLQKTCLKNNKIDYIKLLGEIATENQFEVTYVDIEEKTFSGQFQCLVQLSTLPVGVCHGSGPTAADAQRHAAQNALEYLKIMT
For the molecule B2, in the series with His-tagged GFP-dmDcr1, it took 9.3 nM to reach half-maximal inhibition (IC50) and the affinity, expressed as Ki, was 3.6 nM.

B3: Loqs-3 K460E (size-exclusion chromatography) (domain or fragment, Drosophila, UniProt Q9VJY9 368-463, looked up)
chain: B2 chain with K93E
With B3, the binding result in the series “SEC” is reported as “binds”.

A word on the Kd: it is the equilibrium constant for the complex coming apart. The term stoichiometry N denotes a count of units in the complex or per binding partner. As usually defined, the IC50 is the concentration at which inhibition is half-maximal. The term Ki denotes the dissociation constant of the complex between target and ligand, obtained from inhibition or displacement. Higher therefore signals a looser hold on the target.
